Results on 30 sequences are retold here after the nanobody polyreactivity screen of Harvey et al. (2022).

A short description of the data set: yeast display, Sf9 membrane polyspecificity reagent, FACS + sequencing; frameworks hold sequencing errors. The method, boiled down: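 Sorting gates, low and high (top ~1%), were placed on anti-HA fluorescence to track expression and on streptavidin fluorescence to track reagent binding. A clone's polyreactivity label is taken from the gate it came out of. The reagent was 10% biotinylated, detergent-solubilized Sf9 membrane, applied for 1 hour at 4 °C to galactose-induced yeast display cells.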
Consider “QVQLVESGGGLVQAGGSLRLSCAASGRTIDRNAMGWYRQPPGKERELVAAISGSGGRTYYADSVKGRFTISRDNEKNSVYLQMNSLKPEDTAVYYCAARVGSSPSKSKYDYWGQGTQVTVSS”, for which the “polyreactivity (PSR sort gate)” value was “high polyreactivity”. The value for “QVQLVESGGGLVQAGGSLRLSCAASGRTIDSNAMGWYRQAPGKERELVATIDRGGSTNYADSVKGRFTISRDNAKNTVYLQMNSLKPEDTAVYYCATRGHYHAFYYTYPRYDSWGQGTQVTVSS” was “low polyreactivity”; that for “QVQLVESGGGLVQAGGSLRLSCAASGRTIDYNGMGSYRQAPGKERELVAVISSSGGSTFYADSVKGRFTISRDNAKNTVYLQMNSLKPVDTAVYYCAADFIVAYTLHGSYDYWGQGTQVTVSS” was “low polyreactivity”. Under “QVQLVESGGGLVQAGGSLRLSCAASGRTIGGNAMGRYRQAPGKERELVAAISWSGGRTYYADSVKGRFTISRDNAKNTVYLQMNSLKPEDTAVYYCNKVGYGFHGDYDYWGQGTQVTVSS” stands “high polyreactivity”; under “QVQLVESGGGLVQAGGSLRLSCAASGRTIGIYAMGLYRQAPGKERELVAAITWSGDSTYYADSVKGRFTISRDNAKNTVYLQMNSLKPEDTAVYYCAAYYLYRYQTMGYWGQGTLVTVSS”, “low polyreactivity”. As for “QVQLVESGGGLVQAGGSLRLSCAASGRTIGLYGMGWYRQAPGKEREFDAAITRRGGSTYYADSVKGRFTISRDHAKNTVYLQMNSLKPEDTADYYCAAGYSSRYRGGLDYWGQGTQVTVSS”, the “polyreactivity (PSR sort gate)” value is “high polyreactivity”.

For the sequence “QVQLVESGGGLVQAGGSLRLSCAASGRTIGVYAMGWYRQAPGKERELVAAISWSGGTTYYADSVKGRFTISRDNAKNTVYLQMNSLKPEDTAVYYCDADSYTEVDYWGQGTQVTVSS”, the “polyreactivity (PSR sort gate)” value is reported as “low polyreactivity”. Turning to “QVQLVESGGGLVQAGGSLRLSCAASGRTIGYNAMGWYRQAPGKERELVAAITRSAGITYYADSVKGRFTISRDNAKNTVYLQLNSLKPEDTAVYYCNKRVVYRSSLFDYWGQGTQVTVSS”, the “polyreactivity (PSR sort gate)” value is on record as “low polyreactivity”. Consider “QVQLVESGGGLVQAGGSLRLSCAASGRTINGNTMGWYRQAPGKERELVAVIDWSGGSTYYADSVKGRFTISRDTAKNTVYLQMNSLKPEDTAVYFCATVSGYAYYYWGQGTQVTVSS”, for which the “polyreactivity (PSR sort gate)” value is reported as “low polyreactivity”.

As to “QVQLVESGGGLVQAGGSLRLSCAASGRTIPFYAMGWYRQAPGKERELVAAISSSAGRTYYADSVKGRFSISRDNAKNTVYLQLNSLKPEDTAVYYCAARLYCRYRYDYWGQGTQVTVSS”, the “polyreactivity (PSR sort gate)” value is “low polyreactivity”. Under “QVQLVESGGGLVQAGGSLRLSCAASGRTIPHNAMGWYRQAPGKERQLVATITAGSGSTYYADSVKGRFTISRDNAKNTVSLQLNSLKPEDTAVYYCNAKWTLYQSDYWYYIYDYWGQGTQVTVSS” stands “low polyreactivity”. “QVQLVESGGGLVQAGGSLRLSCAASGRTIQTYAMGWYRQAPRKERELVAAITSSGGSTYYADSVKGRFTISRDNAKNTVYLQMNSLIPEDSAVYYWSAYRRIRVGVPVRTYYYWGQGTQVTVSS”: the “polyreactivity (PSR sort gate)” value is on record as “high polyreactivity”.

As to “QVQLVESGGGLVQAGGSLRLSCAASGRTIQYNAMGWYRQAPGKERQLVAAISSSGGSTYYADSVKGRFTISRDNAKNTVYLQMNSLKPEDTAVYYCNAYSQSWNFYGDGDYWGQGTQVTVSS”, the “polyreactivity (PSR sort gate)” value is “low polyreactivity”. The value for “QVQLVESGGGLVQAGGSLRLSCAASGRTIRAYTMGWYRQAPGNERELVAAISTPGGSTYYADSVKGRFTISRDNAKNTVYLQLNSLKPEDTAVYYCAADYGGPITGYEYWGQGTQVTVSS” was “low polyreactivity”.

“QVQLVESGGGLVQAGGSLRLSCAASGRTIRVYAMGWYRQAPGKERELVARINFRGGSTRYADSVKGRFTISRDNAKNTVYLQMNSLKPEDTAVYYCAARPSSFYYSNGFDYWGQGTQVTVSS”: the “polyreactivity (PSR sort gate)” value is on record as “high polyreactivity”. “QVQLVESGGGLVQAGGSLRLSCAASGRTIRYNALGWYREARGKERELVASIRRGGSTNYADSVKGRCTISRDNAKNPVYLHMNSLKPEDTAVSYCAAAGGGVRKVWGGSRYGYWGQGTQVTVSS”: the “polyreactivity (PSR sort gate)” value is listed as “high polyreactivity”. Regarding “QVQLVESGGGLVQAGGSLRLSCAASGRTIRYYAMGWYRQAPGKERELVAAITSGGSTYYADSVKGRFTISRDNAKNTVYLQMNSLKPEDTAVYYCAAARYEPFIYDYGYWGQGTQVTVSS”, the “polyreactivity (PSR sort gate)” value is “low polyreactivity”. As to “QVQLVESGGGLVQAGGSLRLSCAASGRTIRYYTMGWYRQAPGKERELVATIRRGRTTYYADSVKGRFTISRDNEKNTVYLQMYSLKPEDTAVYYCAADFPSAEVDYWGQGTQVTVSS”, the “polyreactivity (PSR sort gate)” value is on record as “low polyreactivity”. Under “QVQLVESGGGLVQAGGSLRLSCAASGRTIVYNAMGWYRQAPGKERELVAAITSRGGSTHYADSVKGRFTISRDNAKNTVYLQMNSLKPEDTAVYYCAADFLSPAYRPSWYRFDYWGQGTQVTVSS” stands “low polyreactivity”. On to “QVQLVESGGGLVQAGGSLRLSCAASGRTIWWYAMGWYRQAPGKERELVADITWIGGSTYYADSVKGRFTISRDNAKNTVYLQMNSLKPEDTAVYYCATDKDDVSDLGKDYAYFEYDYWGQGTQVTVSS”, for which the “polyreactivity (PSR sort gate)” value is on record as “low polyreactivity”. The value for “QVQLVESGGGLVQAGGSLRLSCAASGRTIWYNAMGWYRQAPGKERELVAVISSGAITYYADSVKGRFTFSRDNGKNTVYLQMNSLKPEDTAFYYCAARSYLSLIDYWGQGTQVNVSS” was “high polyreactivity”; that for “QVQLVESGGGLVQAGGSLRLSCAASGRTIYQNAMGWYRQAPGKEREFVAAITGGTGSTHYADSVKGRFTISRDNAKITVYLQMNSLKPEDSAVYYCATRYLFGFSRYDYWGQGTQVTVSS” was “low polyreactivity”.

Turning to “QVQLVESGGGLVQAGGSLRLSCAASGRTIYRYGMGWYRQAPGKERELVADITWRGDSTYYADSVKGRFTISRDNAKNTVYLQMNCLKPEDTAVYYCATRPRGYRWGKLYDYWGQGTQVTVSS”, the “polyreactivity (PSR sort gate)” value was “high polyreactivity”. In the case of “QVQLVESGGGLVQAGGSLRLSCAASGRTIYTYAMGWYRQAPGKERELVAAITKRGGSTYYADSVKGRFTISRDNAQNTVYLQMNSLKPEDTAVYYCNKELATARGQSLYRTYSGYGYWGQGTQVTVSS”, the “polyreactivity (PSR sort gate)” value is on record as “high polyreactivity”. In the case of “QVQLVESGGGLVQAGGSLRLSCAASGRTIYYYAMGLYRQAPGKERELVAAISSSGSTTYYADSVKGRFTISRDNAKNTVYLQMNSLKPEDTAVYYCAASYVYRVDDDYWGLGTQVTVSS”, the “polyreactivity (PSR sort gate)” value is listed as “low polyreactivity”. As for “QVQLVESGGGLVQAGGSLRLSCAASGRTIYYYAMGWYRQAPGKEREFVAAISWHGGSTYYADSVKGRFTISRDNAKNNVYLQMNSLKPEDTAVYYCAADIYLRGFHYDYWGQGTQVTVSS”, the “polyreactivity (PSR sort gate)” value is on record as “low polyreactivity”. Turning to “QVQLVESGGGLVQAGGSLRLSCAASGRTIYYYAMGWYRQAPGKEREFVAAISWHGGSTYYADSVKGRFTISRDNAKNTVYLQMNSLKPEDTAVYYCAAERYDRVGFDYWGQGTQVTVSS”, the “polyreactivity (PSR sort gate)” value was “low polyreactivity”.

Consider “QVQLVESGGGLVQAGGSLRLSCAASGRTLAENAMGWYRQAPGKERELVAAISSIGGRTYYADSVKGRFTISRDNAKNTVYLQMNSLKPEDTAVYYCAATLRTKSARYNYWGQGTQVTVSS”, for which the “polyreactivity (PSR sort gate)” value is listed as “high polyreactivity”. Regarding “QVQLVESGGGLVQAGGSLRLSCAASGRTLATYAMGWYRQAPGKERELVAAISTSGTRTYYADSVKGRFTISRDNAKNTVYLQMNSLKPEDTAVYYCNAGPGYDYWGHGTQVTVSS”, the “polyreactivity (PSR sort gate)” value is on record as “high polyreactivity”.

In the case of “QVQLVESGGGLVQAGGSLRLSCAASGRTLDVYAMGWSRQAPGKERELVASITSSGARTYYADSVKGRFTISRDNAKNTVYLQMNSLKPEDTAVYYCAARVYRYSASRAYDYWGQGSQVTVSS”, the “polyreactivity (PSR sort gate)” value is given as “high polyreactivity”.
